Literature values as cited in paper PMC5818423.
pKd: −log10 of the molar value.

Tests used:
[1] = target: CD26 (UniProt P27487)
[2] = target: Adenosine A1 receptor (UniProt P30542)
Chain of Adenosine A1 receptor (P30542 whole entry): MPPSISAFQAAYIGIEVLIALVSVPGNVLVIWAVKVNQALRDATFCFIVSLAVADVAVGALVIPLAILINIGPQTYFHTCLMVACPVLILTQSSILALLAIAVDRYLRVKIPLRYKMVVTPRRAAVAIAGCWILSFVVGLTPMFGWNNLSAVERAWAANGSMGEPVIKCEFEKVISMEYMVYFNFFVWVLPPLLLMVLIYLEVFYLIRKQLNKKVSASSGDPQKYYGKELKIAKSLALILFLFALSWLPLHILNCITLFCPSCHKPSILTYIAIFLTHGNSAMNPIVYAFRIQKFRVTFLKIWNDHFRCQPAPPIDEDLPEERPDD

Chain of Adenosine deaminase (P00813 2-363): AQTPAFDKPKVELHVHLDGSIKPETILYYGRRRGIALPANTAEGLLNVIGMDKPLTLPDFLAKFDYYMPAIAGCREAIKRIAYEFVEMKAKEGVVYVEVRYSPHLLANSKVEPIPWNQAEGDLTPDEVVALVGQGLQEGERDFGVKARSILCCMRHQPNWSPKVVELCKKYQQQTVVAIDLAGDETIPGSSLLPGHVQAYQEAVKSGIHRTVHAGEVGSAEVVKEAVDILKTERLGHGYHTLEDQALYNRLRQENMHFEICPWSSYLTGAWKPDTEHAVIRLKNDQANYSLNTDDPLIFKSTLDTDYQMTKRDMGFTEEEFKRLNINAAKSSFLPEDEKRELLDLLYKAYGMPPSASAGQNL
Chain of CD26 (P27487 39-766): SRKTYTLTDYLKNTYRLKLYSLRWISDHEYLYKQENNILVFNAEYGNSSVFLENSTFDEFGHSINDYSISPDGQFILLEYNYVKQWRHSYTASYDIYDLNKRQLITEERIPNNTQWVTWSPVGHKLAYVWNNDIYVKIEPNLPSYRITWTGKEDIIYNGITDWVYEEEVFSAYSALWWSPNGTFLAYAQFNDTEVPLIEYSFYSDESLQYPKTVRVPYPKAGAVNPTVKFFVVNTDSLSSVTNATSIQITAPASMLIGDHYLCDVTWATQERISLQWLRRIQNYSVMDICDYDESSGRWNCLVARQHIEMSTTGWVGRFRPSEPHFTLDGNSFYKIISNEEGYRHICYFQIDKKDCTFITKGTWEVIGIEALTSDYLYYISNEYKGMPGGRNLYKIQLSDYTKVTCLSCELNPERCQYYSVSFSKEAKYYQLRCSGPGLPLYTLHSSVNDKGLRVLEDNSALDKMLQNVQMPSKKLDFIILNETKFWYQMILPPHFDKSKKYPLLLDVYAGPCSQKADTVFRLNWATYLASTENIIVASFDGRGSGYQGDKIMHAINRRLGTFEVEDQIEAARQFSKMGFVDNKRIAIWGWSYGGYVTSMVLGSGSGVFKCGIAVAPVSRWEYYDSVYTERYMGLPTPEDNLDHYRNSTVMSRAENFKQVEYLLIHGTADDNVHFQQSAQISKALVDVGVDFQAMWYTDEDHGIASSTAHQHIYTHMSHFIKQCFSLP

- pKd [1]: 7.74
- pKd [2]: 6.64
Substance: Adenosine deaminase (from UniProt P00813)
